Experimental data from PMC3210482 (Journal of molecular biology, 2011).
Where two headings read alike, the source gives them in different places.

What was measured:
[1] = biological target: the molecule itself; experiment: FRET or BRET
[2] = biological target: the molecule itself; experiment: FRET or BRET; remark: listed apart in the source

Protein | Kd [1] [nM] | Kd [2] [nM]
EnvZHDC (cytoplasmic HAMP, DHp and CA domains of E. coli histidine kinase EnvZ, amino acids 179-450) (domain or fragment, UniProt P0AEJ4 179-450, looked up) IRIQNRPLVDLEHAALQVGKGIIPPPLREYGASEVRSVTRAFNHMAAGVKQLADDRTLLMAGVSHDLRTPLTRIRLATEMMSEQDGYLAESINKDIEECNAIIEQFIDYLRTGQEMPMEMADLNAVLGEVIAAESGYEREIETALYPGSIEVKMHPLSIKRAVANMVVNAARYGNGWIKVSSGTEPNRAWFQVEDDGPGIAPEQRKHLFQPFVRGDSARTISGTGLGLAIVQRIVDNHNGMLELGTSERGGLSIRAWLPVPVTRAQGTTKEG | 400 | 
EnvZDC (DHp and CA domains of E. coli EnvZ, amino acids 223-450) (domain or fragment, UniProt P0AEJ4 223-450, looked up) MAAGVKQLADDRTLLMAGVSHDLRTPLTRIRLATEMMSEQDGYLAESINKDIEECNAIIEQFIDYLRTGQEMPMEMADLNAVLGEVIAAESGYEREIETALYPGSIEVKMHPLSIKRAVANMVVNAARYGNGWIKVSSGTEPNRAWFQVEDDGPGIAPEQRKHLFQPFVRGDSARTISGTGLGLAIVQRIVDNHNGMLELGTSERGGLSIRAWLPVPVTRAQGTTKEG | 100 | 
RstBDC (DHp and CA domains of E. coli RstB, amino acids 201-433) (domain or fragment, UniProt P18392 201-433, looked up) MADNINALIASKKQLIDGIAHELRTPLVRLRYRLEMSDNLSAAESQALNRDISQLEALIEELLTYARLDRPQNELHLSEPDLPLWLSTHLADIQAVTPDKTVRIKTLVQGHYAALDMRLMERVLDNLLNNALRYCHSTVETSLLLSGNRATLIVEDDGPGIAPENREHIFEPFVRLDPSRDRSTGGCGLGLAIVHSIALAMGGTVNCDTSELGGARFSFSWPLWHNIPQFTSA |  | 270000
RstBHDC (cytoplasmic HAMP, DHp and CA domains of E. coli histidine kinase RstB, amino acids 157-433) (domain or fragment, UniProt P18392 157-433, looked up) MRPHWQDMLKLEAAAQRFGDGHLNERIHFDEGSSFERLGVAFNQMADNINALIASKKQLIDGIAHELRTPLVRLRYRLEMSDNLSAAESQALNRDISQLEALIEELLTYARLDRPQNELHLSEPDLPLWLSTHLADIQAVTPDKTVRIKTLVQGHYAALDMRLMERVLDNLLNNALRYCHSTVETSLLLSGNRATLIVEDDGPGIAPENREHIFEPFVRLDPSRDRSTGGCGLGLAIVHSIALAMGGTVNCDTSELGGARFSFSWPLWHNIPQFTSA | 300 | 
